± gives the uncertainty stated by the source.
Test: protein stability index of a GFP-peptide fusion (yeast GPS) (PSI 1-4); higher = more stable; sorted into four equal gates, so the index is relative within each strain
Method in brief: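 Sequencing reads from sorted gates were used to score each peptide. The library consisted of tiled 17-residue yeast protein peptides fused downstream of GFP on a Cherry-expressing plasmid, pooled and carried in yeast. Mid-log cultures in leucine-free medium were split into four equal gates by GFP/Cherry ratio, and each gate's plasmids were PCR-amplified and Illumina-sequenced. The protein stability index adds up, over all gates, the read frequency multiplied by the gate number.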

Sequence | protein stability index (doa10∆) | protein stability index (pdr5∆) | protein stability index (san1∆) | protein stability index (ubr1∆)
HIRKASSKKSKRLDKVG [LRP1] | 3.21 ± 0.087 | 2.78 ± 0.1 | 2.97 ± 0.061 | 2.95 ± 0.066
PFLHLRKKTPAGDWKYD [FAS2] | 3.2 ± 0.29 | 3.32 ± 0.2 | 2.54 ± 0.24 | 3.08 ± 0.21
DLNTRISVIETIRVVTE [RPN5] | 1.64 ± 0.15 | 2.04 ± 0.12 | – | 2.97 ± 0.15
LVVLTDVVERLHKNFES [RGR1] | 2.49 ± 0.093 | 2.74 ± 0.073 | 2.61 ± 0.12 | 2.96 ± 0.053
ETELFEPGVLNTGDGSI [ECM29] | 3.25 ± 0.15 | 3.2 ± 0.11 | 2.92 ± 0.12 | 3.07 ± 0.11
RKKTPAGDWKYDRQLSS [FAS2] | 1.25 ± 0.066 | 2.43 ± 0.092 | 1.59 ± 0.19 | 1.32 ± 0.079
LAKTKENYDAKIELEKK [YIL149C/MLP2] | 3.22 ± 0.058 | 3.47 ± 0.075 | 3.05 ± 0.061 | 3.13 ± 0.053
SEAEQIDTSKNLENMSI [YCG1] | 3.3 ± 0.073 | 3.28 ± 0.068 | 3.17 ± 0.068 | 2.99 ± 0.069
TSIHSTISILAAPSGNY [RRP43] | 1.59 ± 0.038 | 1.85 ± 0.033 | 1.97 ± 0.05 | 1.67 ± 0.029
PQMFLNQQAQARQQVAQ [GAL11] | 2.66 ± 0.15 | 2.46 ± 0.13 | 1.9 ± 0.27 | 1.7 ± 0.091
NQIQRQQQQQFRHHVQI [SNF5] | 1.86 ± 0.04 | 2.08 ± 0.045 | 1.88 ± 0.085 | 1.91 ± 0.03
VQCHGSFATATCVTCHW [SIR2] | 2.28 ± 0.047 | 2.55 ± 0.046 | 2.26 ± 0.045 | 2.51 ± 0.031
SSNCHVRQKIKTLKRMI [POP1] | 1.41 ± 0.04 | 1.75 ± 0.053 | 1.42 ± 0.091 | 2.01 ± 0.045
ETENSESIASSNTYKEE [MCD1] | – | 2.55 ± 0.29 | – | 2.89 ± 0.074
SVWKPIAAIIGRLNTLV [IRR1] | 1.68 ± 0.03 | 1.56 ± 0.026 | 2.04 ± 0.058 | 1.63 ± 0.024
EISTSKKNNLEFGTYGK [RPN14] | 2.6 ± 0.08 | 2.13 ± 0.061 | 2.17 ± 0.082 | 2.04 ± 0.059
DDENEPKRKRRLPVSED [YOR098C/NUP1] | 3.34 ± 0.1 | 3.28 ± 0.14 | 3.09 ± 0.087 | 3.06 ± 0.072
GDFLDFQVHERLAPLIK [ARP7] | 3.29 ± 0.16 | 3.29 ± 0.13 | 3.42 ± 0.1 | 3.47 ± 0.098
DDPSKVRLLCRSDGMGN [YLR335W/NUP2] | 2.94 ± 0.26 | 3.66 ± 0.19 | 2.98 ± 0.16 | 2.96 ± 0.15
ANAMNRMAKLCARFLGN [RPO31] | 3.12 ± 0.21 | – | – | –
NFNKFFKIWHGEINKIC [PCI8] | 1.24 ± 0.049 | 1.13 ± 0.046 | 1.15 ± 0.079 | 1.14 ± 0.059
FPWLNAIKYRPTSVKLL [POP3] | 2.1 ± 0.038 | 2.19 ± 0.046 | 2.26 ± 0.062 | 1.96 ± 0.035
GFGLVYNSVAEAKKFEP [RPS24A] | 3.22 ± 0.1 | 3.47 ± 0.13 | 2.87 ± 0.1 | 2.8 ± 0.14
LIENCKQVLDVDPVYKD [FAS2] | 3.14 ± 0.17 | 3.21 ± 0.12 | 3.33 ± 0.076 | 3.37 ± 0.068
LVSTLTTGISSTGAADG [SMC2] | 2.34 ± 0.097 | 2.65 ± 0.088 | 2.93 ± 0.092 | 2.69 ± 0.059
LVALSNEPAARLGSEAD [FAS2] | 3.44 ± 0.082 | 3.37 ± 0.073 | 3.45 ± 0.054 | 3.32 ± 0.092

Sequence | protein stability index (doa10∆) | protein stability index (pdr5∆) | protein stability index (san1∆) | protein stability index (ubr1∆)
CVAAWGVCNHAFHLHCI [HRT1] | 1.69 ± 0.05 | 1.75 ± 0.065 | 1.52 ± 0.076 | 2.28 ± 0.045
AAQTNATFLKLAAPQLV [RPT5] | 2.62 ± 0.16 | 3.17 ± 0.15 | 2.41 ± 0.083 | 2.86 ± 0.11
KVIKVLGRTGSRGGVTQ [RPS28A] | 3.02 ± 0.073 | 3.04 ± 0.058 | 2.73 ± 0.085 | 3.12 ± 0.083
YGIPLEFYNEMHRPVHF [PRP8] | 1.85 ± 0.074 | 2.04 ± 0.1 | 1.98 ± 0.14 | 2.64 ± 0.15
TSLLYLSTLEPSTSITL [RPN9] | 2.36 ± 0.059 | 1.89 ± 0.049 | 1.91 ± 0.089 | 2.13 ± 0.045
TFHDYDMVKLDINPPLV [RRP42] | 2.94 ± 0.088 | 2.73 ± 0.061 | 2.87 ± 0.096 | 3.15 ± 0.037
PSKGQSLSKISQAFDIV [RPP1] | 3.25 ± 0.095 | 3.19 ± 0.085 | 2.96 ± 0.11 | 3.2 ± 0.085
GLKFASFIFQYYGLVID [PRP8] | 1.73 ± 0.2 | 1.27 ± 0.18 | 1.14 ± 0.27 | –
HQQRMSRTAADILLRLC [YCG1] | 2.48 ± 0.29 | 1.63 ± 0.2 | – | 2.66 ± 0.1
DRIIHTWRTQLAASEIG [ECM29] | 1.65 ± 0.056 | 1.84 ± 0.06 | 1.65 ± 0.062 | 1.83 ± 0.035
FGLGYGDVGKNHITEFP [RPC31] | 3.17 ± 0.11 | 3.22 ± 0.11 | 3.38 ± 0.12 | 3.56 ± 0.12
VLVSMGSSNKAVVQTVK [YJL039C/NUP192] | 1.33 ± 0.26 | 1.5 ± 0.15 | – | 1.34 ± 0.19
PLYVMDEIDAALDFRNV [SMC4] | 2.5 ± 0.059 | 2.33 ± 0.066 | 3.26 ± 0.051 | 2.51 ± 0.048
MQAIADSFSVPNRLVKE [PRE2] | 2.94 ± 0.14 | 3.02 ± 0.24 | 3.03 ± 0.14 | –
DGKGAVYSFDPVGSYER [PRE7] | 3.31 ± 0.18 | 2.57 ± 0.12 | 2.94 ± 0.15 | 3.27 ± 0.081
DGFDPRGNIKVMFATNR [RPT1] | 3.25 ± 0.17 | 3.48 ± 0.16 | 3.26 ± 0.091 | 3.24 ± 0.14
LTYDKDLTNNPQDDDSQ [MTR3] | 2.8 ± 0.073 | 3.21 ± 0.099 | 3 ± 0.081 | 3.1 ± 0.075
PFLNETKPGVYYVPYSK [RPC82] | 3.09 ± 0.12 | 2.97 ± 0.13 | 3.03 ± 0.064 | 3.36 ± 0.091
YSTIRQLVYKRGFGKIN [RPL7A] | 2.34 ± 0.064 | 1.97 ± 0.047 | 2.24 ± 0.11 | 1.98 ± 0.049
LPLLYNFNPDNGFAPIS [FAS1] | 2.03 ± 0.12 | 2.63 ± 0.054 | 2.47 ± 0.093 | 2.72 ± 0.068
QTKDSVKEIVLPLFYDL [IRR1] | 2.42 ± 0.06 | 2.4 ± 0.057 | 2.6 ± 0.05 | 2 ± 0.035
SKLSEHLNHYILLRYHH [YCG1] | 2.16 ± 0.067 | 1.73 ± 0.059 | 1.82 ± 0.091 | 2.02 ± 0.062
RETNDDIWRVAGKFELL [SNF2] | 2.54 ± 0.067 | 2.26 ± 0.065 | 2.43 ± 0.076 | 2.8 ± 0.066
LKSQMDTSKALLNVSVN [SKI6] | 3.22 ± 0.13 | 2.92 ± 0.12 | 3.23 ± 0.13 | 3.07 ± 0.053
LSHYAKIRPWRTFRLNE [RPO31] | 2.86 ± 0.058 | 2.4 ± 0.055 | 3.06 ± 0.073 | 2.5 ± 0.051

Source: the supplement of paper PMC9732359
